# B1: CSPG4-N(30-640)-Fc (Fc fusion)
# chain: ASFFGENHLEVPVATALTDIDLQLQFSTSQPEALLLLAAGPADHLLLQLYSGRLQVRLVLGQEELRLQTPAETLLSDSIPHTVVLTVVEGWATLSVDGFLNASSAVPGAPLEVPYGLFVGGTGTLGLPYLRGTSRPLRGCLHAATLNGRSLLRPLTPDVHEGCAEEFSASDDVALGFSGPHSLAAFPAWGTQDEGTLEFTLTTQSRQAPLAFQAGGRRGDFIYVDIFEGHLRAVVEKGQGTVLLHNSVPVADGQPHEVSVHINAHRLEISVDQYPTHTSNRGVLSYLEPRGSLLLGGLDAEASRHLQEHRLGLTPEATNASLLGCMEDLSVNGQRRGLREALLTRNMAAGCRLEEEEYEDDAYGHYEAFSTLAPEAWPAMELPEPCVPEPGLPPVFANFTQLLTISPLVVAEGGTAWLEWRHVQPTLDLMEAELRKSQVLFSVTRGARHGELELDIPGAQARKMFTLLDVVNRKARFIHDGSEDTSDQLVLEVSVTARVPMPSCLRRGQTYLLPIQVNPVNDPPHIIFPHGSLMVILEHTQKPLGPEVFQAYDPDSACEGLTFQVLGTSSGLPVERRDQPGEPATEFSCRELEAGSLVYVHRGGPAQDLTF
# B2: CSPG4-N(401-560)-Fc (Fc fusion)
# chain: LAPEAWPAMELPEPCVPEPGLPPVFANFTQLLTISPLVVAEGGTAWLEWRHVQPTLDLMEAELRKSQVLFSVTRGARHGELELDIPGAQARKMFTLLDVVNRKARFIHDGSEDTSDQLVLEVSVTARVPMPSCLRRGQTYLLPIQVNPVNDPPHIIFPHG
# Key:
# GST-TcdB-C(1500-2366) = GST-TcdB-C(1500-2366) (Clostridium difficile, UniProt P18177 1500-2366); assay: pull-down
# Sequence of GST-TcdB-C(1500-2366) (P18177 1500-2366): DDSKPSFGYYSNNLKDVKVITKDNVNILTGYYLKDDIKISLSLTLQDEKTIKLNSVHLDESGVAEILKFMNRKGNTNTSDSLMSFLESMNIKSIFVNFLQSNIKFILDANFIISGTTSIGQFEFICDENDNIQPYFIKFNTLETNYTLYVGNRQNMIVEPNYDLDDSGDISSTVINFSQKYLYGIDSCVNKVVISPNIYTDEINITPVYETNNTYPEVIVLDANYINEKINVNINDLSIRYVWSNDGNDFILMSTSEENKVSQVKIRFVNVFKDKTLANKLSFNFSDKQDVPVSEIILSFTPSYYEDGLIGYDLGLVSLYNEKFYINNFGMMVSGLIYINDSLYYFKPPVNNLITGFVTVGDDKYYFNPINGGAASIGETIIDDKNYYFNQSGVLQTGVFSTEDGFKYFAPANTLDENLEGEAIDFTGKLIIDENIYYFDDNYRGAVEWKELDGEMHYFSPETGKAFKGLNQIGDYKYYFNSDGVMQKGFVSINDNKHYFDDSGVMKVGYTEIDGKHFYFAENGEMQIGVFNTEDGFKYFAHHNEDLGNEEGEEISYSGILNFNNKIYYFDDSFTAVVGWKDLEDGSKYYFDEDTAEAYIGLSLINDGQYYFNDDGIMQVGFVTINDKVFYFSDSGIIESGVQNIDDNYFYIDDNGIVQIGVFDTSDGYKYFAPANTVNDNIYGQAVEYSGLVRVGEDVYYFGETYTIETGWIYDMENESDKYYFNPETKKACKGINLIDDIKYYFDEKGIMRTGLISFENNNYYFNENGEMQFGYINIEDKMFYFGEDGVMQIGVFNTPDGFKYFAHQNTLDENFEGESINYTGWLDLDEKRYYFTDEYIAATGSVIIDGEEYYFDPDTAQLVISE
# [1] = target: Clostridium difficile toxin B, His-tagged (TcdB-His) (Clostridium difficile, UniProt P18177 1-2366); assay: SPR
# Sequence of Clostridium difficile toxin B, His-tagged (TcdB-His) (P18177 whole entry): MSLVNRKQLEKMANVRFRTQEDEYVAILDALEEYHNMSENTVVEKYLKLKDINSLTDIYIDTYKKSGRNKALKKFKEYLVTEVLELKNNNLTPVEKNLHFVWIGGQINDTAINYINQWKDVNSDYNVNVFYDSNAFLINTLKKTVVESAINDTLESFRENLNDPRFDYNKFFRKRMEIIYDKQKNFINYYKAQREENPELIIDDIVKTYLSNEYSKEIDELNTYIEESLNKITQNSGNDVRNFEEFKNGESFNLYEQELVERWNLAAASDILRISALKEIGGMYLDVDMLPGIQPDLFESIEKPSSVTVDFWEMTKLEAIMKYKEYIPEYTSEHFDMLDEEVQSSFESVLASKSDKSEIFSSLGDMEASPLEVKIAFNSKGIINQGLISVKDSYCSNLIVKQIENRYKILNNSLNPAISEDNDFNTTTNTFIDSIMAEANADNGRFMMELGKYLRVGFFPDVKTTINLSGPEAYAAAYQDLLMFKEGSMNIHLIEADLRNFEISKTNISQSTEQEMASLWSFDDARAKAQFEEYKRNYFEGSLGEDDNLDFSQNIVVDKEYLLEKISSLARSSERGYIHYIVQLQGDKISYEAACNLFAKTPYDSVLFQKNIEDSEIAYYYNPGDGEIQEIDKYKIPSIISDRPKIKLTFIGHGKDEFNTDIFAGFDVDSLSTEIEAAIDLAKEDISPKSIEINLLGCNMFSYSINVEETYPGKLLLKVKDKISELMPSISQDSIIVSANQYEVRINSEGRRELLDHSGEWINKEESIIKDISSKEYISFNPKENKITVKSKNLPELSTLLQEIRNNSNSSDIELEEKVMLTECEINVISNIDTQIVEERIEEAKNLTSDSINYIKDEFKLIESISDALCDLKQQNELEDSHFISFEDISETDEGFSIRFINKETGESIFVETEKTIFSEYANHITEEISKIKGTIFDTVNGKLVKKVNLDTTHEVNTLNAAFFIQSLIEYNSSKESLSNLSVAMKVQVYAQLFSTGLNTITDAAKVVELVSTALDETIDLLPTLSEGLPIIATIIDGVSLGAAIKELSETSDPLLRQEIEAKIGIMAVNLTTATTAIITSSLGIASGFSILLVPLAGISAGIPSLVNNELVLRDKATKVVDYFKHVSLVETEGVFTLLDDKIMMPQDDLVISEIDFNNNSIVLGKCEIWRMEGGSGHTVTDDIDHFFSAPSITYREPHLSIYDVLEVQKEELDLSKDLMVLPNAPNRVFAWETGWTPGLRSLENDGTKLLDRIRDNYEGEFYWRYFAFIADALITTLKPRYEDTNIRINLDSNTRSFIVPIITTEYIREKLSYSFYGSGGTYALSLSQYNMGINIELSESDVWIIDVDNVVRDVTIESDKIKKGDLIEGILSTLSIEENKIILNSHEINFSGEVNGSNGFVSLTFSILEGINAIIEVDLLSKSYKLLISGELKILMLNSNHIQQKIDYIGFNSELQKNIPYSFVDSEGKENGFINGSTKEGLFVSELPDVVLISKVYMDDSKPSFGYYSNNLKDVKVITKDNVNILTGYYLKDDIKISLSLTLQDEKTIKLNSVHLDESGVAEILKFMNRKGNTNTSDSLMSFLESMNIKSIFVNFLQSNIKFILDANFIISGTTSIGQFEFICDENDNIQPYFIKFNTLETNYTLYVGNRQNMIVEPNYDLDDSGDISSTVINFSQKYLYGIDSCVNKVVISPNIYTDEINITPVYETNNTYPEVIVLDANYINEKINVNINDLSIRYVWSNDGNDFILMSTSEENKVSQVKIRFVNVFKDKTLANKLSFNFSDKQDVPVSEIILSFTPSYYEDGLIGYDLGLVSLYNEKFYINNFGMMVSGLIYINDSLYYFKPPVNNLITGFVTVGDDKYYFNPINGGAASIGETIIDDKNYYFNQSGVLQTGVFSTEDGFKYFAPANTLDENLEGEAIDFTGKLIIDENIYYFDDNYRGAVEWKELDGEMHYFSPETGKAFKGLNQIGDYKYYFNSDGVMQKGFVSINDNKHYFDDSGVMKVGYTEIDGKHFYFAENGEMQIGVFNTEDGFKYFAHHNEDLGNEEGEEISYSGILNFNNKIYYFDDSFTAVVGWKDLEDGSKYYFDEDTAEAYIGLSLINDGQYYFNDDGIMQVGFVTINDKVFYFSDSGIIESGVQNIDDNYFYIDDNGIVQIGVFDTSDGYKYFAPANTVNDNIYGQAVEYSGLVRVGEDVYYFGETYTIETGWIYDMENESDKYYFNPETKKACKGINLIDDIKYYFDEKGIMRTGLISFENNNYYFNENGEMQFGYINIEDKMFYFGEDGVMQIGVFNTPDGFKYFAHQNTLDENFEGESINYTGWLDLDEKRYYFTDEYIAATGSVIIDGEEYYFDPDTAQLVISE
Binder,binding result (GST-TcdB-C(1500-2366)),Kd [1]
B1,binds,–
B2,–,28.9 ± 0.7 nM

# — article PMC4650570 (Cell Research, 2014)
